# Assay results: patent US20260116920A1 (PEPTIDREAM, published 2026)
# Starred links: 1 amine or outer side, 2 acyl side, 3 side chain; linkers in the order of their positions; H or OH if unused. Positions of bridges follow the written chain, without caps; N, C: chain ends. Non-standard residues stand in square brackets, D forms with d. Primed or numbered codes have the meaning given here. No end group written: not given here. *: point of attachment. E(PEG8Me) = (S)-30-amino-27-oxo-2,5,8,11,14,17,20,23-octaoxa-26-azahentriacontane-31-oic acid, COCCOCCOCCOCCOCCOCCOCCOCCNC(=O)CC[C@H](N[*:1])C(=O)[*:2]; E(PEG4Me) = (S)-18-amino-15-oxo-2,5,8,11-tetraoxa-14-azanonadecane-19-oic acid, COCCOCCOCCOCCNC(=O)CC[C@H](N[*:1])C(=O)[*:2]; Phe(4-OMe)(3) = (S)-2-amino-3-(4-methoxyphenyl)propanoic acid (source code F4OMe), COc1ccc(C[C@H](N[*:1])C(=O)[*:2])cc1; F4aao = (S)-2-amino-3-(4-(carboxymethoxy)phenyl)propanoic acid, O=C([C@H](Cc1ccc(OCC(=O)[*:3])cc1)N[*:1])[*:2]; Phe(4-OMe) = F4OMe = (S)-2-amino-3-(4-methoxyphenyl)propanoic acid, COc1ccc(C[C@H](N[*:1])C(=O)[*:2])cc1; E(NHdPEG1Me) = N5-(1,3-dimethoxypropan-2-yl)-L-glutamine, COCC(COC)NC(=O)CC[C@H](N[*:1])C(=O)[*:2]; dkCOmeglumine = N6-(methyl((2S,3R,4R,5R)-2,3,4,5,6-pentahydroxyhexyl)carbamoyl)-D-lysine; Trp(1-CH2CO) = O=C([C@H](Cc1cn(CC(=O)[*:3])c2ccccc12)N[*:1])[*:2]; Nle(6-morpholino) = N[C@@H](CCCCN1CCOCC1)C(=O)O; Phe(3-COOH) = N[C@@H](Cc1cccc(C(=O)O)c1)C(=O)O; Trp(7-aza) = N[C@@H](Cc1c[nH]c2ncccc12)C(=O)O; NH(CH2CH2O)8Me = COCCOCCOCCOCCOCCOCCOCCOCCN*; NMePhe(3-Cl) = CN[C@@H](Cc1cccc(Cl)c1)C(=O)O; 3Pal(6-NH2) = Nc1ccc(C[C@H](N)C(=O)O)cn1; Lys(N3) = [N-]=[N+]=NCCCC[C@H](N)C(=O)O; NMeY = CN[C@@H](Cc1ccc(O)cc1)C(=O)O; NMeF = CN[C@@H](Cc1ccccc1)C(=O)O; 3Pal = N[C@@H](Cc1cccnc1)C(=O)O; 4Pal = N[C@@H](Cc1ccncc1)C(=O)O
# B1: 894_0374 (peptide)
# peptide: {CH2CO}-AV[NMePhe(3-Cl)]VWN[3Pal(6-NH2)][3Pal]IIR[E(PEG8Me)][Phe(3-COOH)]YC-NH2
# modifications: thioether N-15; not fully specified (residue 14); also: linker PEG4c, place not given here
# B2: 894_0375 (peptide)
# peptide: {CH2CO}-AV[NMePhe(3-Cl)]VWN[3Pal(6-NH2)][3Pal]IIR[E(PEG8Me)][4Pal]YC-NH2
# modifications: thioether N-15; not fully specified (residue 14); also: linker PEG4c, place not given here
# B3: 894_0372 (peptide)
# peptide: {CH2CO}-AV[NMePhe(3-Cl)]VWNY[F4aao]IIR[E(PEG8Me)][Phe(3-COOH)]YC-NH2
# modifications: thioether N-15; not fully specified (residue 14); also: linker PEG4c, place not given here
# B4: 894_3193 (peptide)
# peptide: AVFVWNYAIIRRAYC
# modifications: 3:MeF3C,8:3Py,13:4Py,14:MeY; linker G-de-de-de-ds-ds-KN3; ClAc-1/C15 thioether ring; C-term NH2
# B5: 894_0373 (peptide)
# peptide: {CH2CO}-AV[NMePhe(3-Cl)]VWNY[F4aao]IIR[E(PEG8Me)][4Pal]YC-NH2
# modifications: thioether N-15; not fully specified (residue 14); also: linker PEG4c, place not given here
# Target: T1, human transferrin receptor (hTfR) (human, UniProt P02786 89-760)
# T1 construct: used as 0.5 uM hTfR dimer solution, immobilised on an NTA sensor chip (Ni capture plus EDC/NHS coupling); also called human TfR; TfR1
# Assay: SPR; B = KD 1-100 nM
# Method in brief: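 Recombinant hTfR dimer immobilised on Ni-NTA chip with EDC/NHS coupling; running buffer 10 mM HEPES pH 8.0, 150 mM NaCl, 0.05% Tween 20, 0.1% BSA, 1.0% DMSO. Peptides injected at 5–100 nM in single-cycle kinetics; KD from least-squares sensorgram fitting.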
# T1 sequence (P02786 89-760 limits assumed): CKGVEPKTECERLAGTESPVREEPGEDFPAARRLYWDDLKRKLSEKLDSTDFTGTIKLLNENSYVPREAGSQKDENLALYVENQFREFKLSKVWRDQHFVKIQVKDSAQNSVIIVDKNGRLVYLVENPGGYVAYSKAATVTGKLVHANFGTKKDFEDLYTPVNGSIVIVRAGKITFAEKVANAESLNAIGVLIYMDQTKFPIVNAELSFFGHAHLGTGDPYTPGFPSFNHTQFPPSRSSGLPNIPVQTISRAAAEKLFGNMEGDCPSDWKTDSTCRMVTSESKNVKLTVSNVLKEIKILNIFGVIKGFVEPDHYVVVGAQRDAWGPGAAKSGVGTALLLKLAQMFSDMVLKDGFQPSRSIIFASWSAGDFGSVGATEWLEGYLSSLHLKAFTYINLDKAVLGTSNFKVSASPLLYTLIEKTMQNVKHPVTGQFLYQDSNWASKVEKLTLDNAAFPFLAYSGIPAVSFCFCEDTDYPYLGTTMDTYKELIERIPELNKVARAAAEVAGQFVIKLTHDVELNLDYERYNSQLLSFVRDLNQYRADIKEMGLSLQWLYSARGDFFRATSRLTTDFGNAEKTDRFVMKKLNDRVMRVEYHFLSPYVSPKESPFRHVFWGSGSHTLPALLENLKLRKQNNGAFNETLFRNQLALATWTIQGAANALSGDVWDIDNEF
row,Binder,KD [nM]
1,{CH2CO}-AV[NMePhe(3-Cl)]VWNY[3Pal]IIRE(NH(CH2CH2O)8Me)[4Pal][NMeY]C-NH2 (thioether N-15; also: linker PEG4c) [894_0371],1 to 100
2,B1,1 to 100
3,"{CH2CO}-AV[NMePhe(3-Cl)]V[Trp(7-aza)]NY[F4aao]II[E(PEG8Me)][Nle(6-morpholino)][4Pal][NMeY]C-NH2 (thioether N-15; also: linker PEG4c, attachment not given here) [894_0426]",1 to 100
4,"{CH2CO}-AV[NMePhe(3-Cl)]V[Trp(7-aza)]NY[F4aao]IIQ[Nle(6-morpholino)][Phe(3-COOH)][NMeY]C-NH2 (thioether N-15; also: linker PEG4c, attachment not given here) [894_0428]",1 to 100
5,"{CH2CO}-AV[NMePhe(3-Cl)]V[Trp(1-CH2CO)]NY[F4aao]IIQ[Nle(6-morpholino)][4Pal][NMeY]C-NH2 (thioether N-15; also: linker PEG4c, attachment not given here) [894_0420]",1 to 100
6,"{CH2CO}-AV[NMePhe(3-Cl)]VWN[3Pal(6-NH2)][F4aao]IIR[E(PEG8Me)][4Pal][NMeY]C-NH2 (thioether N-15; also: linker PEG4c, place not given here) [894_0377]",1 to 100
7,B2,1 to 100
8,"{CH2CO}-AV[NMePhe(3-Cl)]V[Trp(7-aza)]NY[F4aao]IIQ[Nle(6-morpholino)][4Pal][NMeY]C-NH2 (thioether N-15; also: linker PEG4c, attachment not given here) [894_0425]",1 to 100
9,"{CH2CO}-AV[NMePhe(3-Cl)]V[Trp(7-aza)]NY[F4aao]IIQR[4Pal][NMeY]C-NH2 (thioether N-15; also: linker PEG4c, attachment not given here) [894_0424]",1 to 100
10,"{CH2CO}-AV[NMeF]V[Trp(1-CH2CO)]NY[F4aao]IIRRY[NMeY]C-NH2 (thioether N-15; also: linker G-de-de-de-ds-ds-KN3, attachment not given here) [894_3170]",1 to 100
11,"{CH2CO}-AV[NMeF]VWNYYIIRRY[NMeY]C-NH2 (thioether N-15; also: linker G-de-de-de-de-de-C(AcNMe), place not given here) [894_0394]",1 to 100
12,"{CH2CO}-AV[NMePhe(3-Cl)]V[Trp(1-CH2CO)]NY[F4aao]II[E(PEG4Me)]RF[NMeY]C-NH2 (thioether N-15; also: linker PEG4c, place not given here) [894_0395]",1 to 100
13,"{CH2CO}-AV[NMeF]VWNY[F4aao]IIRRY[NMeY]C-NH2 (thioether N-15; also: linker G-de-de-de-ds-ds-KN3, attachment not given here) [894_3169]",1 to 100
14,"{CH2CO}-AV[NMePhe(3-Cl)]VWN[3Pal(6-NH2)][F4aao]IIR[E(PEG8Me)][Phe(3-COOH)][NMeY]C-NH2 (thioether N-15; also: linker PEG4c, place not given here) [894_0376]",1 to 100
15,"{CH2CO}-AV[NMePhe(3-Cl)]V[Trp(1-CH2CO)]NY[F4aao]IIQR[4Pal][NMeY]C-NH2 (thioether N-15; also: linker PEG4c, place not given here) [894_0419]",1 to 100
16,"{CH2CO}-AV[NMePhe(3-Cl)]V[Trp(1-CH2CO)]NY[F4aao]IIQR[Phe(3-COOH)][NMeY]C-NH2 (thioether N-15; also: linker PEG4c, attachment not given here) [894_0421]",1 to 100
17,"{CH2CO}-AV[NMePhe(3-Cl)]V[Trp(1-CH2CO)]NY[F4aao]II[E(NHdPEG1Me)]RF[NMeY]C-NH2 (thioether N-15; also: linker PEG4c, place not given here) [894_0396]",1 to 100
18,B3,1 to 100
19,B4,1 to 100
20,{CH2CO}-AV[NMePhe(3-Cl)]VWNY[Phe(4-OMe)(3)]IIKRF[NMeY]C (thioether N-15; not fully specified (C-terminus)) [894_3150],1 to 100
21,{CH2CO}-AV[NMePhe(3-Cl)]VWNY[3Pal]IIRR[4Pal][NMeY]CG-{dkCOmeglumine-dkCOmeglumine-dkCOmeglumine-dS-dS-Lys(N3)-NH2} (thioether N-15) [894_3192],1 to 100
22,"{CH2CO}-AV[NMeF]VWNYYIIRRY[NMeY]C-NH2 (thioether N-15; also: linker G-de-de-de-S-S-C(AcNMe), place not given here) [894_0393]",1 to 100
23,B5,1 to 100
24,{CH2CO}-AV[NMeF]VWNY[Phe(4-OMe)]IIR[dR]FYC-NH2 (thioether N-15; not fully specified (residue 14); also: linker PEG4c) [894_0283],1 to 100
